According to article PMC4104448 (2014):
Each block holds one binder with its values, some of them ahead of it.

B5: Biotinylated human β-glucocerebrosidase (residues 40A-536R) (enzyme)
chain: ARPCIPKSFGYSSVVCVCNATYCDSFDPPTFPALGTFSRYESTRSGRRMELSMGPIQANHTGTGLLLTLQPEQKFQKVKGFGGAMTDAAALNILALSPPAQNLLLKSYFSEEGIGYNIIRVPMASCDFSIRTYTYADTPDDFQLHNFSLPEEDTKLKIPLIHRALQLAQRPVSLLASPWTSPTWLKTNGAVNGKGSLKGQPGDIYHQTWARYFVKFLDAYAEHKLQFWAVTAENEPSAGLLSGYPFQCLGFTPEHQRDFIARDLGPTLANSTHHNVRLLMLDDQRLLLPHWAKVVLTDPEAAKYVHGIAVHWYLDFLAPAKATLGETHRLFPNTMLFASEACVGSKFWEQSVRLGSWDRGMQYSHSIITNLLYHVVGWTDWNLALNPEGGPNWVRNFVDSPIIVDITKDTFYKQPMFYHLGHFSKFIPEGSQRVGLVASQKNDLDAVALMHPDGSAVVVVLNRSSKDVPLTIKDPAVGFLETISPGYSIHTYLWRRQ
modifications: biotin (in vivo biotinylated by BirA)

What was measured:
[1] = molecular target: T1, Biotinylated human CI-MPR domains I-XV (residues 41Q-G2293) (human, UniProt P11717 41-2293, biotin (in vivo biotinylated by BirA)); experiment: SPR; 2 mM G6P
[2] = molecular target: B5; experiment: SPR; 2 mM G6P
[3] = molecular target: T1, Biotinylated human CI-MPR domains I-XV …; experiment: SPR; 2 mM mannose
[4] = molecular target: B5; experiment: SPR; 2 mM mannose
[5] = molecular target: B5; experiment: SPR; 2 mM M6P
[6] = molecular target: B5; experiment: SPR
[7] = molecular target: T1, Biotinylated human CI-MPR domains I-XV …; experiment: SPR; buffer without sugar
[8] = molecular target: T1, Biotinylated human CI-MPR domains I-XV …; experiment: SPR; with 2 mM mannose
[9] = molecular target: B5; experiment: SPR; pH 6.5
H150T mutant LIMP-2 [10] = molecular target: T2, H150T mutant LIMP-2 (human, UniProt Q14108 28-432, H150T); experiment: SPR; pH 6.5
T2 sequence: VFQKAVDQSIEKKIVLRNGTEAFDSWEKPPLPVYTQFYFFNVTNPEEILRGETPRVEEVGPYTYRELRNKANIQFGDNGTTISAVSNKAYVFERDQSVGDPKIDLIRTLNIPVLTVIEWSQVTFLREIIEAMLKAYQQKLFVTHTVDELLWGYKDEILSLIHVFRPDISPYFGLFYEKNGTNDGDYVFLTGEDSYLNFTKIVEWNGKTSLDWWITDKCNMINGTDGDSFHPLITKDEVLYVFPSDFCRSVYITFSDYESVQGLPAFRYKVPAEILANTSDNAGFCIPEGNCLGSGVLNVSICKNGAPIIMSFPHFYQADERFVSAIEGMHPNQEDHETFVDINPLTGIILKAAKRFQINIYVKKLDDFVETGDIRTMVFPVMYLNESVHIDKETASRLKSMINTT

H150T mutant LIMP-2 [11] = molecular target: T2, H150T mutant LIMP-2; experiment: SPR; pH 5.5

T1 sequence (P11717 41-2293): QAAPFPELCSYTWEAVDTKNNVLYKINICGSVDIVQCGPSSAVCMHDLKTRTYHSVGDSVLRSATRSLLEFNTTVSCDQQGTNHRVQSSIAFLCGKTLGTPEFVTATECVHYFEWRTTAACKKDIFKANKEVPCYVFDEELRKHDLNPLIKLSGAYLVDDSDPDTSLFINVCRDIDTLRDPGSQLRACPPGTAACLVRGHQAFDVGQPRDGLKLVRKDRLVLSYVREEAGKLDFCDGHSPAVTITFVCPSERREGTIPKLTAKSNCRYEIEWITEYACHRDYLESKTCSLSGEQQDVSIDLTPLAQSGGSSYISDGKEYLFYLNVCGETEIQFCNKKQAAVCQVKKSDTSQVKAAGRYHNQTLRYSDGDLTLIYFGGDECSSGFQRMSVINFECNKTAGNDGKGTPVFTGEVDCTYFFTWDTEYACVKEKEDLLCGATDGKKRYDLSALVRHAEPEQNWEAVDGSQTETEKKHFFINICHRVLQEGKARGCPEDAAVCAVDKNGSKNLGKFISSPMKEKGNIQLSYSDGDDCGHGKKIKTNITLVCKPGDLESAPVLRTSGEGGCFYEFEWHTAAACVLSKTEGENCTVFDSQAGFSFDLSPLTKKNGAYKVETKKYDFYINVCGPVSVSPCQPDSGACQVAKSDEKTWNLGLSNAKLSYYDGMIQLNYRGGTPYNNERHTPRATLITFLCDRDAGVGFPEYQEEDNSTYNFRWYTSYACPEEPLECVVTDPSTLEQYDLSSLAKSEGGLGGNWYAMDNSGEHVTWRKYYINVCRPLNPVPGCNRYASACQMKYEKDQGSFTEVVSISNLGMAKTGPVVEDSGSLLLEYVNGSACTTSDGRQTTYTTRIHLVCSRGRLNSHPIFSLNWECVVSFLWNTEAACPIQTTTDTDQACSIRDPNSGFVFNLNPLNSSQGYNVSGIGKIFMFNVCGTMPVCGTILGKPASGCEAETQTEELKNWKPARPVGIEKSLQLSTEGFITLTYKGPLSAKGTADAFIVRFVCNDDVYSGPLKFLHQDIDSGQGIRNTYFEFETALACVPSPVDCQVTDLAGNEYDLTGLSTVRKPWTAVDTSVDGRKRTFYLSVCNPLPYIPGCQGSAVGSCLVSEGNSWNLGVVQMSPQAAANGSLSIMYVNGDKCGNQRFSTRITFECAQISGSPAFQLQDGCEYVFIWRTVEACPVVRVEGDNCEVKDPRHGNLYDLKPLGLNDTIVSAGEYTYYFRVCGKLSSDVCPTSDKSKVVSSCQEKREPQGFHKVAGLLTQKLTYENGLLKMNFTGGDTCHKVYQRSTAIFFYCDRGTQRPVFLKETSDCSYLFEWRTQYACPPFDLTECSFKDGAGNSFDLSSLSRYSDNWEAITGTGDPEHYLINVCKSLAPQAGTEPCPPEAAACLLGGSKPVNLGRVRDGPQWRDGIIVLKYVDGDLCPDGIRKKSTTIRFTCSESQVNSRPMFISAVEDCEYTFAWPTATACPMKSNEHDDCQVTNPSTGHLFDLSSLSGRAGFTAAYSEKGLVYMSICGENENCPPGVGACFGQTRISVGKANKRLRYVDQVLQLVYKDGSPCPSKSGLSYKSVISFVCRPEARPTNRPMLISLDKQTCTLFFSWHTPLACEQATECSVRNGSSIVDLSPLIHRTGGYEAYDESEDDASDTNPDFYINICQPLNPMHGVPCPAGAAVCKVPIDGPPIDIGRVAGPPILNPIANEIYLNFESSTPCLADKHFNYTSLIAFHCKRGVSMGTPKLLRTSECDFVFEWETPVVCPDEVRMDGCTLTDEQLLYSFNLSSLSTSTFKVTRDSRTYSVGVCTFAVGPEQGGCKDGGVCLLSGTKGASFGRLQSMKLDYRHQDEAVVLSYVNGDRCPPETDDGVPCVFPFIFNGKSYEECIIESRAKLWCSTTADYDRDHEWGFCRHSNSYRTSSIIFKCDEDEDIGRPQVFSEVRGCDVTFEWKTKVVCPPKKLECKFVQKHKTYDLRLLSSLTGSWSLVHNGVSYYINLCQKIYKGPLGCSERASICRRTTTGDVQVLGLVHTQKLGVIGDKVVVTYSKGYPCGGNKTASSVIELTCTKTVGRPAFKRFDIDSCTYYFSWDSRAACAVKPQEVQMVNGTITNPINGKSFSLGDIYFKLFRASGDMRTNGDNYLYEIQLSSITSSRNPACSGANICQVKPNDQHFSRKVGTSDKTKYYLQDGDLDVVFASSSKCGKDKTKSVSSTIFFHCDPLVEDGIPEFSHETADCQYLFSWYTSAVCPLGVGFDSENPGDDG

Kd [1]: 1160 nM
Kd [2]: 1800 nM
Kd [3]: 1200 nM
Kd [4]: 2830 nM
Kd [5]: 2100 nM
Kd [6]: 2060 nM
B1: Human LIMP-2 luminal domain (residues 28-431) produced from HEK293T cells, with full glycosylation (domain or fragment)
chain: VFQKAVDQSIEKKIVLRNGTEAFDSWEKPPLPVYTQFYFFNVTNPEEILRGETPRVEEVGPYTYRELRNKANIQFGDNGTTISAVSNKAYVFERDQSVGDPKIDLIRTLNIPVLTVIEWSQVHFLREIIEAMLKAYQQKLFVTHTVDELLWGYKDEILSLIHVFRPDISPYFGLFYEKNGTNDGDYVFLTGEDSYLNFTKIVEWNGKTSLDWWITDKCNMINGTDGDSFHPLITKDEVLYVFPSDFCRSVYITFSDYESVQGLPAFRYKVPAEILANTSDNAGFCIPEGNCLGSGVLNVSICKNGAPIIMSFPHFYQADERFVSAIEGMHPNQEDHETFVDINPLTGIILKAAKRFQINIYVKKLDDFVETGDIRTMVFPVMYLNESVHIDKETASRLKSMINT
modifications: full glycosylation

Kd [6]: 3000 nM
B2: Human LIMP-2 luminal domain produced from HEK293S (GNTI-) cells and deglycosylated with endoglycosidase F1 (domain or fragment)
chain: VFQKAVDQSIEKKIVLRNGTEAFDSWEKPPLPVYTQFYFFNVTNPEEILRGETPRVEEVGPYTYRELRNKANIQFGDNGTTISAVSNKAYVFERDQSVGDPKIDLIRTLNIPVLTVIEWSQVHFLREIIEAMLKAYQQKLFVTHTVDELLWGYKDEILSLIHVFRPDISPYFGLFYEKNGTNDGDYVFLTGEDSYLNFTKIVEWNGKTSLDWWITDKCNMINGTDGDSFHPLITKDEVLYVFPSDFCRSVYITFSDYESVQGLPAFRYKVPAEILANTSDNAGFCIPEGNCLGSGVLNVSICKNGAPIIMSFPHFYQADERFVSAIEGMHPNQEDHETFVDINPLTGIILKAAKRFQINIYVKKLDDFVETGDIRTMVFPVMYLNESVHIDKETASRLKSMINT
modifications: glycans trimmed to a single N-acetylglucosamine with endoglycosidase F1

Kd [7]: 1800 nM
Kd [8]: 1880 nM
B3: Human LIMP-2 luminal domain (residues 28-431) produced from HEK293S (GnTI-) cells, with limited glycosylation (domain or fragment)
chain: VFQKAVDQSIEKKIVLRNGTEAFDSWEKPPLPVYTQFYFFNVTNPEEILRGETPRVEEVGPYTYRELRNKANIQFGDNGTTISAVSNKAYVFERDQSVGDPKIDLIRTLNIPVLTVIEWSQVHFLREIIEAMLKAYQQKLFVTHTVDELLWGYKDEILSLIHVFRPDISPYFGLFYEKNGTNDGDYVFLTGEDSYLNFTKIVEWNGKTSLDWWITDKCNMINGTDGDSFHPLITKDEVLYVFPSDFCRSVYITFSDYESVQGLPAFRYKVPAEILANTSDNAGFCIPEGNCLGSGVLNVSICKNGAPIIMSFPHFYQADERFVSAIEGMHPNQEDHETFVDINPLTGIILKAAKRFQINIYVKKLDDFVETGDIRTMVFPVMYLNESVHIDKETASRLKSMINT
modifications: N-linked P-Man9GlcNAc2 (with terminal mannose 6-phosphate) at N325; sugars on all nine N-linked glycosylation sites, limited processing

Kd [9]: 1200 nM
B4: Wild-type LIMP-2 (soluble luminal domain; producing cells not stated for the experiment) (domain or fragment)
chain: VFQKAVDQSIEKKIVLRNGTEAFDSWEKPPLPVYTQFYFFNVTNPEEILRGETPRVEEVGPYTYRELRNKANIQFGDNGTTISAVSNKAYVFERDQSVGDPKIDLIRTLNIPVLTVIEWSQVHFLREIIEAMLKAYQQKLFVTHTVDELLWGYKDEILSLIHVFRPDISPYFGLFYEKNGTNDGDYVFLTGEDSYLNFTKIVEWNGKTSLDWWITDKCNMINGTDGDSFHPLITKDEVLYVFPSDFCRSVYITFSDYESVQGLPAFRYKVPAEILANTSDNAGFCIPEGNCLGSGVLNVSICKNGAPIIMSFPHFYQADERFVSAIEGMHPNQEDHETFVDINPLTGIILKAAKRFQINIYVKKLDDFVETGDIRTMVFPVMYLNESVHIDKETASRLKSMINT

Binder: B5
Kd (H150T mutant LIMP-2 [10]): 2300 nM
Kd (H150T mutant LIMP-2 [11]): 2100 nM
